From PMC3009601, “Structural Basis for Apoptosis Inhibition by Epstein-Barr Virus BHRF1” (PLoS Pathogens, 2010)

Assays:
[1] = biological target: T1, BHRF1 (recombinant; BHRF1ΔC31) (Epstein-barr virus strain ag876, UniProt P0C6Z1); assay: biosensor assay; format: binding
T1 construct: C-terminally truncated (last 31 residues removed, ΔC31), His-tagged, E. coli BL21(DE3) pLysS; the ABT-737 sentence says only 'recombinant BHRF1'

[2] = biological target: BHRF1ΔC31 (Epstein-Barr virus) (UniProt P03182); assay: ITC; VP-ITC (MicroCal), recombinant BHRF1ΔC31 with BH3 domain peptides; Kd values are the means of 3 experiments ± SD
[3] = biological target: T2, BHRF1ΔC31 (Epstein-Barr virus, UniProt P03182); assay: ITC
T2 chain: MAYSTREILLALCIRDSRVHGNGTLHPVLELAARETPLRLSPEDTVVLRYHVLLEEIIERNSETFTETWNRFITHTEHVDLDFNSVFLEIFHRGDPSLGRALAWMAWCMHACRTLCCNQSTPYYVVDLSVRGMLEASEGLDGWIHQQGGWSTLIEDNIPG

[4] = biological target: T3, BHRF1ΔC31 (Epstein-Barr virus, UniProt P03182); assay: ITC; VP-ITC (MicroCal), recombinant BHRF1ΔC31 with BH3 domain peptides; Kd values are the means of 3 experiments ± SD; details: both partners purified
T3 construct: Epstein-Barr virus BHRF1 (viral Bcl-2 homolog) lacking the C-terminal 31 residues (ΔC31); electron density seen for residues 2-158 in the Bim complex; Cloned into pET DUET with BamHI and EcoRI; also called recombinant C-terminally truncated form of BHRF1; recombinant BHRF1; source: E. coli BL21 DE3 pLysS, purified (nickel Hi-Trap chelating column, Superdex 200 gel filtration)
T3 sequence: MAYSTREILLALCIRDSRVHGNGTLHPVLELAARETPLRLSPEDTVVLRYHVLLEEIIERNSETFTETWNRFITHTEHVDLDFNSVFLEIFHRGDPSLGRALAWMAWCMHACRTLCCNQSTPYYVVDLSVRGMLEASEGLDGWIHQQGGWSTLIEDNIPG

CN(C)CC[C@H](CSc1ccccc1)Nc1ccc(S(=O)(=O)NC(=O)c2ccc(N3CCN(Cc4ccccc4-c4ccc(Cl)cc4)CC3)cc2)cc1[N+](=O)[O-] [ABT-737]
IC50 [1]: > 20 µM

human Bak BH3 26-mer peptide
Kd [2]: 150 nM

human Bim BH3 26-mer peptide
Kd [2]: 18 nM

human Puma BH3 26-mer peptide
Kd [2]: 70 nM

B1: human Bax BH3 28-mer peptide (peptide)
chain: PQDASTKKLSECLKRIGDELDSNMELQR
Kd [3]: 1400 nM
Kd [4]: > 1000 nM

B2: human Bid BH3 34-mer peptide (peptide)
chain: SESQEDIIRNIARHLAQVGDSMDRSIPPGLVNGL
Kd [4]: 110 nM
